The target in assay [1] is T1, Amyloid Beta (antigen of the Amyloid Beta ELISA) (UniProt P05067 672-713, limits assumed). Nature of the assay: Amyloid Beta ELISA, conditioned medium from transient transfection. A general note: An ELISA detects its analyte on a solid surface through an enzyme-linked reagent.
The target in assay [2] is T2, amyloid beta 1-42 monomers (UniProt P05067 672-713).
T2 construct: domain: amyloid beta 1-42; also called Aβ1-42 monomers; amyloid monomers
Nature of the assay: SPR (BIACORE), Aβ1-42 monomers immobilized on CM5 chip, antibody 0.05-1.0 µM. As to the method:
(§1) BIACORE® technology utilizes changes in the refractive index at the surface layer upon binding of the antibody to the antigen immobilized on the layer. Binding is detected by surface plasmon resonance (SPR) of laser light refracting from the surface. Analysis of the signal kinetics on rate and off rate allows the discrimination between non-specific and specific interaction. The concentration of antibody used was in the range of 0.05 μM to 1.0 μM.

The next assay addresses T3, amyloid beta 1-42 fibers (UniProt P05067 672-713).
T3 construct: domain: amyloid beta 1-42; Many copies per fiber; also called Aβ1-42 fibers; fibrillar Aβ1-42
Nature of the assay: SPR (BIACORE), Aβ1-42 fibers immobilized on CM5 chip, antibody 0.05-1.0 µM. As to the method: as §1
Background: In SPR one partner is held on a chip, and binding of the other changes the refractive index at the surface.

The target of assay [3] is T1, Amyloid Beta (antigen of the Amyloid …). Nature of the assay: Amyloid Beta ELISA, purified antibodies.

Changes are numbered by the printed parent chain.

T2 sequence (P05067 672-713 limits assumed): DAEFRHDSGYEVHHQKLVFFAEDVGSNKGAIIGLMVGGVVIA
T3 sequence (P05067 672-713 limits assumed): as above
T1 sequence (P05067 672-713 limits assumed): as above

B1: C2 HuVH AF version 3 combined with the chimeric C2 kappa chain (antibody, V domains shown)
VH: EVQLVESGGGLVQPGGSLRLSCAASGFTFSSYGMSWVRQAPGKGLELVASINSNGGSTYYPDSVKGRFTISRDNAKNSLYLQMNSLRAEDTAVYYCARGDYWGQGTTVTVSS
VL: DVVMTQTPLSLPVSLGDQASISCRSSQSLVYSNGDTYLHWYLQKPGQSPKLLIYKVSNRFSGVPDRFSGSGSGTDFTLKISRVEAEDLGVYFCSQSTHVPWTFGGGTKLEIK
notes: Transient expression in HEK293; also called C2HuVHAF3/ChVK
As for B1, the binding result in assay [1] was “no binding”.

B2: humanized antibody C2HuVH4/HuVK1 (antibody, human IgG4 S228P, kappa, V domains shown)
VH: B1 VH with R98S
VL: DIVMTQSPLSLPVTPGEPASISCRSSQSLVYSNGDTYLHWYLQKPGQSPQLLIYKVSNRFSGVPDRFSGSGSGTDFTLKISRVEAEDVGVYYCSQSTHVPWTFGQGTKVEIKR
notes: also called H4K1; humanized H4K1
Consider B2, for which, in assay [2], the Kd – broadly, the concentration at which binding is half-saturated – amounted to 19 nM; the koff (as a rule, the rate constant with which the complex falls apart) was determined as 0.00095 s⁻¹; the kon (as a rule, the second-order rate constant of association) stood at 50000 M⁻¹ s⁻¹. Besides, in the assay with amyloid beta 1-42 fibers, binding was put at a Kd of 4.7 nM, the off-rate (koff) came out at 0.00023 s⁻¹ and the on-rate (kon) turned out to be 49000 M⁻¹ s⁻¹.

B3: humanized antibody C2 HuVH2/HuVK3 (antibody, human IgG4 S228P, kappa, V domains shown)
VH: B1 VH with L47W, R98S
VL: B2 VL with Q50K
notes: also called C2HuVHAF2 with C2HuVK3
Regarding B3, in assay [3], the “fold reduction of binding activity against chimeric control antibody C2 ChVHAF/ChVK” value was about 2 fold.

B4: chimeric antibody C2 ChVH AF/ChVK (antibody, human IgG4 S228P, kappa, V domains shown)
VH: EVQLVESGGGLVQPGGSLKLSCAASGFTFSSYGMSWVRQTPDKRLELVASINSNGGSTYYPDSVKGRFTISRDNAKNTLYLQMSSLKSEDTAMYYCASGDYWGQGSTLTVSS
VL: DVVMTQTPLSLPVSLGDQASISCRSSQSLVYSNGDTYLHWYLQKPGQSPKLLIYKVSNRFSGVPDRFSGSGSGTDFTLKISRVEAEDLGVYFCSQSTHVPWTFGGGTKLEIKR
notes: also called C2 VH AF/C2 VK chimeric antibody; chimeric AF
Regarding B4, in assay [2], the equilibrium dissociation constant (Kd) was 20 nM, the koff turned out to be 0.00095 s⁻¹ and the association rate constant (kon) came out at 47000 M⁻¹ s⁻¹. In the assay with amyloid beta 1-42 fibers, this molecule returned a dissociation constant (Kd) of 6.5 nM, a koff of 0.00033 s⁻¹ and a kon of 51000 M⁻¹ s⁻¹.

(Values after patent US20100150906A1 (AC IMMUNE S A, published 2010).)
